{"source": "paper PMC9461283", "target": "SARS-CoV-2 S receptor-binding domain (RBD) (SARS-CoV-2 (isolate Wuhan-Hu-1)) (UniProt P0DTC2)", "experiment": "SPR", "note": "pKd: −log10 of the molar value.", "data": [{"substance": "rhesus macaca (Macaca mulatta) ACE2 ectodomain (ectoACE2), N-terminal 367 aa (from UniProt F7AH40 1-367) (domain or fragment)", "values": [{"measurement": "pKd", "result": 7.17}]}, {"substance": "cynomolgus macaque (Macaca fascicularis) ACE2 ectodomain (ectoACE2), N-terminal 367 aa (domain or fragment)", "values": [{"measurement": "pKd", "result": 7.16}]}]}
